We go through one substance from PMC11208909.

The target in this assay is TOPBP1 (UniProt Q92547). The assay can be described thus: co-IP of FLAG-HTATSF1 with endogenous TOPBP1. As to conditions: reference: wild type; sites S748.

With “HIV Tat-specific factor 1 (HTATSF1) (from UniProt O43719) S748A”, the “binding against the reference” value is on record as “lost”.
